According to the DeepSol protein solubility set:

Experiment: soluble on expression in E. coli; label from the status in PepcDB or PDB records

Sequence | soluble on expression in E. coli
MGSDKIHHHHHHMKSCLYFTFIVLFLTACSTKNLTSLHRENLEQKNENQHYVKLEYEQNVNILPQFAYDINFDAKRYKKYFFNPWHDSFKNYKGQNIFWSFPLYLNSKNTYYFFNKQIIPLSWFKNAINNANIQEFGKLNQKALIIQNTIIKNLPTQRAILKNPFFENEGIPFDYASDGILNTGAPVLISHFSKDKRYAFVLGEAGFGFVESKNLEFFSNDRAKIYENLNFITPLKEKFAIYSEDGKFLFESRIGAIYPYYKEDKNYFYGKIGSKKYKISKKDVSKFPLQFNDKNLKNQLSQVLNLPYGWGGYNFERDCSLLTRDIFSAFGLYLPRNSAAQKNSFNHFDISTLSNSQKKDFLNRFGKAYLSLLYLPGHIMLYAGQITDNNIAIHNIWGLRKDATQRLLISSSVITSLEIGKNEILEDNLLLSRLKEISFINLNEQEKEQIKSYLENIQNK | not soluble
MTEDERFAWLQLAFTPYIGAESFLLLMRRFGSAQNALSAPAEQVAALIRHKQALEAWRNAEKRALARQAAEAALEWEMRDGCRLMLLQDEDFPEMLTQGLTAPPVLFLRGNVQLLHKPSAAIVGSRHATPQAMRIAKDFGKSLGGKGIPVVSGMASGIDTAAHQGALQAEGGTIAVWGTGIDRIYPPVNKNLAYEIAEKGLIVSEFPIGTRPYAGNFPRRNRLIAALSQVTLVVEAALESGSLITARLAAEMGREVMAVPGSIDNPHSKGCHKLIKDGAKLVECLDDILNECPGLLQNTGASSYSINKGIPEKRITAVQTASDQLSLPEGKMPSEKTENRPVGGSILDRMGFDPVHPDVLAGQLAMPAADLYAALLELELDGSVAAMPGGRYQRIRT | not soluble
MAAIAFIGLGQMGSPMASNLLQQGHQLRVFDVNAEAVRHLVDKGATPAANPAQAAKDAEFIITMLPNGDLVRNVLFGENGVCEGLSTDALVIDMSTIHPLQTDKLIADMQAKGFSMMDVPVGRTSANAITGTLLLLAGGTAEQVERATPILMAMGSELINAGGPGMGIRVKLINNYMSIALNALSAEAAVLCEALNLPFDVAVKVMSGTAAGKGHFTTSWPNKVLSGDLSPAFMIDLAHKDLGIALDVANQLHVPMPLGAASREVYSQARAAGRGRQDWSAILEQVRVSAGMTAKVKM | soluble
MAASEAAVVSSPSLKTDTSPVLETAGTVAAMAATPSARAAAAVVAAAARTGSEARVSKAALATKLLSLSGVFAVHKPKGPTSAELLNRLKEKLLAEAGMPSPEWTKRKKQTLKIGHGGTLDSAARGVLVVGIGSGTKMLTSMLSGSKRYTAIGELGKATDTLDSTGRVTEEKPYDKITQEDIEGILQKFTGNIMQVPPLYSALKKDGQRLSTLMKRGEVVEAKPARPVTVYSISLQKFQPPFFTLDVECGGGFYIRSLVSDIGKELSSCANVLELTRTKQGPFTLEEHALPEDKWTIDDIAQSLEHCSSLFPAELALKKSKPESNEQVLSCEYITLNEPKREDDVIKTC | soluble
MGHHHHHHSHMEVVLPLDPAVPAPLCPHGPTLLFVKVTQGKEETRRFYACSACRDRKDCNFFQWEDEKLSGARLAAREAHNRRCQPPLSRTQCVERYLKFIELPLTQRKFCQTCQQLLLPDDWGQHSEHQVLGNVSITQLRRPSQLLYPLENKKTNAQYLFADRSCQFLVDLLSALGFRRVLCVGTPRLHELIKLTASGDKKSNIKSLLLDIDFR | not soluble
MGSDKIHHHHHHVKQQRKEIQVLDRLNQAMEYIERHLDQRIEGAELAQIAATSEYHMRRLFSALAGMPLSEYIRRRRLTVAGAEVLAGDRTLLDIAVRYGYGSAEAFARAFRAMHGVGPGEARRTGAPLRSQPRMSFRLVVEGSTDMRYRIVEKDAFQVVGKKARVPLVYEGPNPAIVEFVRSIDPGTLQRLAELSDQEPRGVVAAVANIAGERVSAPEGTELDYYHGVVTSAPAPEDMAVLPVAAGLWAVFEVEGEAPYAIQYLWRDVFTQWFPANPYQSVPGPELLRTTMSQDGAYVEAELWVPVERVER | not soluble
MGHHHHHHSHKHPFIVELAYAFQTGGKLYLILECLSGGELFTHLEREGIFLEDTACFYLAEITLALGHLHSQGIIYRDLKPENIMLSSQGHIKLTDFGLCKESIHEGAVTHTFCGTIEYMAPEILVRSGHNRAVDWWSLGALMYDMLTGSPPFTAENRKKTMDKIIRGKLALPPYLTPDARDLVKKFLKRNP | not soluble
MAHHHHHHMFNEAAVPFIQTARDNGLLFGGSDAPAMIDYTSEHGKSYHVRGSIFEVAPHFEVLNGIGYGAYGVVCAAVDLRLVASSVYYNEAMRTIEEEGRIVTRQRRGHDAPVYFRTRAVLDEAGRGGPVRVPHLYSEPFKRRTLARGEVSPFVAIKKVTKVFDDLVDGRRILREIKLLRYLQGHPNIVRLMEVGRPPAPTGASSSAAFDDIYLVTDLMDTDLGALLRSSQEIAMDQLRFIAYQLMKVLVYVHSSGVIHRDLKPGNILLNGNCDMKLCDFGLSRGGVPAWPHERTLTAVATAAESSAKELEDWGLFCWSSSAARGASSAPHAAKQPPLYSLTDYVVTRYYRAPELLIMGRYNHAIDMWSAGCILAEMVLRRPLFTGANYLSQLALILETPGLRGVPQTPEEAAALFEGGEEGKHFINDILFHKTARRRDPLTLSDQVHSQVLFHSTLFGFKVDVPISLGILIAKLLSFDPRKRPTALEALRDPFFWPLYDSRDEILRCPASDPSVAREQIDDIAAYQKAHPCVVVDESPVFTWEFDHRITSAQALRGLFEEECQISRDVQQQLERQQRLRSSPVVKCSERRTLERSLFSGASDGSSGGDGAH | not soluble
MSLVLMIVSGRSGSGKSVALRALEDMGFYCVDNLPVVLLPDLARSLADRNISAAVSIDVRNMPESPEIFEQAMQNLPECFSPQLLFLDADRNTLIRRYSDTRRLHPLSSKNLSLESAIDEESDLLEPLRSRADLIVDTSEMSVHELAEMLRTRLLGKRERELTMVFESFGFKHGIPIDADYVFDVRFLPNPHWDPKLRPMTGLDKPVAAFLDRHTEVHNFIYQTRSYLELWLPMLETNNRSYLTVAIGCTGGKHRSVYIAEQLADYFRSRGKNVQSRHRTLEKRKSEGGSHHHHHH | soluble
MDVDRLMRDLSVEQLENIQQNLEKEMEGKRESLREMVGRRYRDVLEASSEVRHVCSLADKLASDIANTRVGYQSTHVRTGGREEQKAGEHLYAVNYLVSSIGGDSGEPLDDVVALCMVEHLQKQLISNHSSPMIHKNARALTNRIVATRSELEFQNCSTLLDISRSDWATNQLAAIALLQGKDISQLLELYLEKRFEHVTHLIEDSATILNIVDEMKKTLAVVEELFVHGELIHAIHSVCNGQYKCELIREMCADQAYSFEKTINEDMDRVWRHLREKLSGRGAGTLPSQLVGEKCAAWIEKTCAVTHKLVAEVCEYFDNLDQIIDLLQAITASLKQDWPRIGSNRSVYDKLLQTAVVDKAKILLIQMIESIELFAKKRFESTSDGPQTAIFDERTYHPDSQSHIGISTQLYNCVKTLWESLEQTNEKCAQFETICTPMADMATSNALKETMATNVLQLLLRLCELHSDKQEGSARFLARARLALALVHSESTLICKLLDKDSQRITSLNQRLHSIIEKNLG | not soluble
AHHHHHHASAKWVCKICGYIYDEDAGDPDNGISPGTKFEELPDDWVCPICGAPKSEFEKLEDGSPKLMTGFVRASGYANKVRRVLFAITRGKVFPEEVVKAAGELNKIIFEKLQEMGVKKEDVVRISVDFNIEDGKIVWNLDSLEIETYKKEEEEKLALAMEEVEHMEKMFEETVKELEALSDKLREISKEISELVERMKQEYTGLKLRSE | soluble
VEPVDPCFRANCEYQCQPLNQTSYLCVCAEGFAPIPHEPHRCQLFCNQTACPADCDPNTQASCECPEGYILDDGFICTDIDECENGGFCSGVCHNLPGTFECICGPDSALAGQIGTDCDSG | soluble
MVVMSKVLLNIGCADVDKPGYINVDARKTKVTHLVSNAWDLDCFEENSVHEIYSRHMLEHLNPEYAKLALQKWFYILEPEGKLVVIVPDIEFHARQLLGVSRSSFGDQMEHAFAGFWGWREKERGGSDFDAHQWGYTVATLENEIGAVGFERIERVVEGVDSEPWHLQMTARKPMTSLCCPMDFRGPFPLEHHHHHH | soluble
GPGSMRYRLRLDAFAPAGSLPCCRILTQVRNLNMNRSVQTRWESDNQVASQKRTDYDFDKEQWSKQMRFASMDCVMDPDITPIKYTSVTGLKKVLRRFMTMRKLIDRRPDFKTDDLKKLFIQLKTISHSRSLEDLKVLQRLTTHGEASRISKEIKTRMNDEFAKKSWKSLKMQEVSNTYQIELDSFQLVNCYMGQMSKEDWLQITYKCEFRERKGDNEEWQSVCEYPVFEVRLGDGVQSPNTHHFIIVGIMRKDGTRYGKDAQDAASLRKQFDRSRKWF | not soluble
MDTGELHDLTVKGAVVTQLERCEVACQRLFQNLALLGLELQNSESITEGVCDSKAASDLGSSVELLENEERALRLCVDRFVLELRQVENLAKTLDGIREEEERILSLEQRSIEQAERCFYLWNDAREMLRGTRLTSIKEVLESAARYPRIPSWTPLPTSN | not soluble
MRVELDFRSVKMQVSQYLYQNVQSIWGDCISHPFVQGIGRGTLERDKFRFYIIQDYLFLLEYAKVFALGVVKACDEAVMREFSNAIQDILNNEMSIHNHYIRGLQITQKELQNARPTLANKSYTSYMLAEGFKGSIKEVAAAVLSCGWSYLVIAQNLSQIPNALEHAFYGHWIKGYSSKEFQACVNWNINLLDSLTLTSSKQEIEKLKDIFITTSEYEYLFWDMAYQSLEHHHHHH | not soluble
MRGSHHHHHHGSTMDIKPAFGTNQEDYASYIMNGIIKWGDPVTRVLDDGELLVQQTKNSDRTPLVSVLLEGPPHSGKTALAAKIAEESNFPFIKICSPDKMIGFSETAKCQAMKKIFDDAYKSQLSCVVVDDIERLLDYVPIGPRFSNLVLQALLVLLKKAPPQGRKLLIIGTTSRKDVLQEMEMLNAFSTTIHVPNIATGEQLLEALELLGNFKDKERTTIAQQVKGKKVWIGIKKLLMLIEMSLQMDPEYRVRKFLALLREEGASPLDFK | soluble
MSLEKLLPDPDPTFERPYTLCLSLDDLLIHSEWTREHGWRIAKRPGVDYFIRYLSQYYELVLFTTTPYATGEPVMRKLDPFRLILWPLYREATKFEDGEIVKDLSYLNRDLSKVIIIDTKAKHVRNQPDNAIILDPWKGDKDDKNLVNLIPFLEYIHTMQYSDVRKVIKSFDGKDIPTEGHHHHHH | soluble
SEGWAGRVRRHLAGDPARGPTMDVLAAELGVSVRTLRRRLADEGTDYETVVDEIREALAEALLATTTLTVAEVSERLGYSEPSAFARAFRRWKAMSPNEYRRSA | soluble
MGSDKIHHHHHHEKKDKKENDTSAAQATETDCTAAELVTTEPEAEITISEMIDQRIKEEGKIMMYRMHFGPSKTPLEITEDLNVNIISYDGKELIDYGNSSNRRGETRLGDIIHNKVDYSTYDIGAYGGSWKRHRRVSGGDEKYVEEEGYVQREITTDDSGNNTQMETLYLYSKGTLYTREEGSEVWNQTEKNDNLPVVAFGTFERIKLDGKTYMTFCVRDDLNLIKYIIIPDNKFTENKTVVYDTPGTEGTTVNTVDYLKEYQAVPKEELEQMIVFPGSKKAESSQAAD | not soluble
MTIYFLFGKTGSGKSYIGELLRQLSIVHIDGDNHITQKMRDCLIEDEQMTPEMIDEFVDVLIDVIKTQKTKTPNESFVISQAMYLDKHRLKLLNAIPELEFVMIDVIPVLRASRITNRFRNQESKVSLRYATRMDAFFEYPSHETIRLENNQSSDETLIEQIREKMPALFNMESKEELNSGIQLQFALEHHHHHH | soluble
YAGLSRFTLSYHNVEYKLFGYGTILNNTNFPGGSSGSAVFNKEKQLTSIYFGSLINVTTGNNRNVNLGLGQILRTYNTNNSKHS | not soluble
